Measured values taken from patent US20140271653A1 (Regeneron, published 2014).
Residue numbers refer to the chain shown, from its start.

B1: H1H3608P2 (antibody, V domains shown)
VH: QVQLVESGGGVVQPGRSLRLSCAASGFTFSSYGMHWVRQAPGKGLEWVAVIYYEGSNDYYVDSVKGRFTISRDNSKNTLYLQMNSLRAEDTAVYYCARRDWNSFDYWGQGTLVTVSS
VL: DIVMTQSPLSLSVTPGEPASISCRSSQNLLNRNGFNYLDWYLQKPGQSPQLLIYLGSNRASGVPDRFSGSGSGTDFTLKISRVEVEDVGVYYCMQAIQTPYTFGQGTKLEIK
B2: H1M3622N (antibody, V domains shown)
VH: QVQLQQWGAGLLKPSETLSLTCAVYGGSLSDYYWSWIRQPPGKGLEWIGEINHSGDTNYDPSLKSRLTISVDTSKNQFSLKLNSVTAADTAVYYCASLYFNFWMWGRGALVTVSS
VL: DIVMTQTPLSSPVILGQPASISCRSSQSLVYSDGNTYLSWLQQRPGQPPRLLIYKISNRFSGVPDRFSGSGTGTDFTLKISRVEAEDVGIYYCMQTTQFPLTFGGGTKVEIK
B3: H1M3627N (antibody, V domains shown)
VH: EVQLVESGGGLVQPGGSLRLSCAASGFTISNYEMNWVRQAPGKGLEWVSYISTSGITIYYADSVQGRFTISRDNAKNSLYLQLNSLRAEDTAVYYCARGYCTNGVCYPHYYYSDMDVWGQGTTVTVSS
VL: DIQMTQSPSSLSASVGDRLTITCRASQTISTYLNWFQQKVGNAPKLLIYSTSSLQSGVPARFSGSGSGTDFTLTISSLQPEDFATYYCQQSYSSPPTFGQGTKVEIK
B4: H1M3621N (antibody, V domains shown)
VH: QVQLEQSGAEVKKPGASVRISCKASGDTFTGYYINWVRQAPGQGLEWMGWINTNSGGTYFSQKFQVRVILTRDTSINTAYMELSRLRSDDTAVYYCARMFYDILTNSDIFDIWGQGTMVTVSS
VL: DIQMTQSPSSLSASVGDRVTITCRASQDIRNDLGWYQQKPGKAPKCLIYGASSLQSGVPSRFSGSGSGTEFTLTISSLQPEDFATYYCLQHKNYMYTFGQGTKLEIK
B5: H1M3624N (antibody, V domains shown)
VH: B4 VH with A16T, T28I, I34M, K63R, V66G, I69T, N77R, N106G, I109V
VL: B4 VL with Q37H
notes: also called H1M2634N
B6: H1H3607P (antibody, V domains shown)
VH: QVQLVESGGGLVKPGGSLRLSCAASGFTFSDYYMTWIRQVPGKGLEWVSYISSTGNNRYYGDSVKGRFAISRDNAKNLLFLQMNSLKAEDTAVYYCARENNWNPYFFYYGMDVWGQGTTVTVSS
VL: DIQMTQSPSSVSASVGDRVTITCRASQGISIWLAWYQQKPGKAPKLLISAASTLQSGVPSRFSGSGSGTDFTLTISSLQPEDFATYYCQQANSFPLTFGQGTKVEIK

Biological target: RSV-F of RSV subtype A strain A2 (1540) (respiratory syncytial virus subtype A, …, UniProt P03420 26-574)
Assay: cell-based or functional assay

Binder	IC50 [pM] for RSV A2 Neutralization, Trial 1	IC50 [pM] for RSV A2 Neutralization, Trial 2	IC50 [pM] for RSV A2 Neutralization, Trial 3	IC50 [pM] for RSV A2 Neutralization, Trial 6
B1	> 10000 pM			
B2	320 pM	82 pM		
B3	4 pM	4 pM	5 pM	10 pM
B4	582 pM	180 pM		
B5	540 pM	270 pM	92 pM	
B6	> 10000 pM			

Biological target: T1, RSV-F.mmh (Respiratory Syncytial Virus)
T1 construct: also called recombinant RSV-F; soluble monomeric RSV-F
Assay: SPR (Biacore), mAb captured via Fc, soluble RSV-F.mmh injected, 25 C

Binder	Kd	koff	kon	t½
B2	2.38 nM	9.13e-05 s⁻¹	38400 M⁻¹ s⁻¹	2.12 h
B3	2.02 nM	0.000523 s⁻¹	259000 M⁻¹ s⁻¹	0.367 h
B4	1.01 nM	0.000208 s⁻¹	205000 M⁻¹ s⁻¹	0.933 h
B5	1.02 nM	0.000183 s⁻¹	179000 M⁻¹ s⁻¹	1.05 h

Biological target: T1, RSV-F.mmh
Assay: as above
Remark: another data set of the same source

Binder	Kd	koff	kon	t½
B1	5.35 nM	2.6e-05 s⁻¹	4850 M⁻¹ s⁻¹	7.42 h
B6	35 nM	0.000148 s⁻¹	4200 M⁻¹ s⁻¹	1.3 h
